doi:10.1101/2024.03.15.585200

Biological target: Toxoplasma gondii ABCB7 homolog (TGGT1_269000) (Toxoplasma gondii)
Assay: native gel or EMSA

“Toxoplasma gondii ABCB7 homolog (TGGT1_269000) (natural protein)” was tested, and the stoichiometry N was 2.
